Experiments:
HeLa Kyoto [1] = assay: solubility change mitosis vs G1/S (difference of NP-40 vs SDS log2 ratios) (log2 ratio difference); higher = more soluble in mitosis
HeLa Kyoto [2] = assay: solubility in G1/S (NP-40 vs SDS abundance) (log2 ratio); higher = more soluble; settings: cell cycle stage: G1/S
HeLa Kyoto [3] = assay: thermal stability score vs G1/S (z-score of summed log2 fold changes over temperatures); higher = more thermally stable than in G1/S
HeLa Kyoto [4] = assay: melting temperature (median over replicates), in situ; higher = more thermally stable
[5] = cell cycle stage: early G1 (4.5 h after nocodazole release)
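Throughout, for melting temperature (median over replicates), in situ: HeLa Kyoto cells synchronized by double thymidine or nocodazole block, proteins quantified by TMT10plex mass spectrometry, three independent biological replicates.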
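Throughout, for solubility change mitosis vs G1/S (difference of NP-40 vs SDS log2 ratios): synchronized HeLa Kyoto cells (double thymidine block for G1/S, nocodazole release for mitosis), protein amounts in NP-40 versus SDS lysates quantified by mass spectrometry, three biological replicates.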
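Throughout, for solubility in G1/S (NP-40 vs SDS abundance): HeLa Kyoto cells arrested at G1/S by double thymidine block, proteins quantified by TMT10plex mass spectrometry in mild NP-40 versus SDS extracts, three biological replicates.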
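Throughout, for thermal stability score vs G1/S (z-score of summed log2 fold changes over temperatures): synchronized HeLa Kyoto cells, proteins quantified by TMT10plex mass spectrometry, three biological replicates, mitosis taken 0.5 h after nocodazole release, G1/S directly after double thymidine block.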

Sequence | solubility change mitosis (log2) (HeLa Kyoto [1]) | solubility in G1/S (log2) (HeLa Kyoto [2]) | thermal stability score (HeLa Kyoto [3]; [5]) | thermal stability score (HeLa Kyoto [3]; cell cycle stage: mitosis) | melting temperature (HeLa Kyoto [4]; cell cycle stage: G1/S) | melting temperature (HeLa Kyoto [4]; cell cycle stage: mitosis)
MRLSSLLALLRPALPLILGLSLGCSLSLLRVSWIQGEGEDPCVEAVGERGGPQNPDSRARLDQSDEDFKPRIVPYYRDPNKPYKKVLRTRYIQTELGSRERLLVAVLTSRATLSTLAVAVNRTVAHHFPRLLYFTGQRGARAPAGMQVVSHGDERPAWLMSETLRHLHTHFGADYDWFFIMQDDTYVQAPRLAALAGHLSINQDLYLGRAEEFIGAGEQARYCHGGFGYLLSRSLLLRLRPHLDGCRGDILSARPDEWLGRCLIDSLGVGCVSQHQGQQYRSFELAKNRDPEKEGSSAFLSAFAVHPVSEGTLMYRLHKRFSALELERAYSEIEQLQAQIRNLTVLTPEGEAGLSWPVGLPAPFTPHSRFEVLGWDYFTEQHTFSCADGAPKCPLQGASRADVGDALETALEQLNRRYQPRLRFQKQRLLNGYRRFDPARGMEYTLDLLLECVTQRGHRRALARRVSLLRPLSRVEILPMPYVTEATRVQLVLPLLVAEAAAAPAFLEAFAANVLEPREHALLTLLLVYGPREGGRGAPDPFLGVKAAAAELERRYPGTRLAWLAVRAEAPSQVRLMDVVSKKHPVDTLFFLTTVWTRPGPEVLNRCRMNAISGWQAFFPVHFQEFNPALSPQRSPPGPPGAGPDPPSPPGADPSRGAPIGGRFDRQASAEGCFYNADYLAARARLAGELAGQEEEEALEGLEVMDVFLRFSGLHLFRAVEPGLVQKFSLRDCSPRLSEELYHRCRLSNLEGLGGRAQLAMALFEQEQANST [CHPF2] | -0.00799 | -0.00882 | -0.504 | -0.497 | 53.4 °C | 53 °C
MRNLKLFRTLEFRDIQGPGNPQCFSLRTEQGTVLIGSEHGLIEVDPVSREVKNEVSLVAEGFLPEDGSGRIVGVQDLLDQESVCVATASGDVILCSLSTQQLECVGSVASGISVMSWSPDQELVLLATGQQTLIMMTKDFEPILEQQIHQDDFGESKFITVGWGRKETQFHGSEGRQAAFQMQMHESALPWDDHRPQVTWRGDGQFFAVSVVCPETGARKVRVWNREFALQSTSEPVAGLGPALAWKPSGSLIASTQDKPNQQDIVFFEKNGLLHGHFTLPFLKDEVKVNDLLWNADSSVLAVWLEDLQREESSIPKTCVQLWTVGNYHWYLKQSLSFSTCGKSKIVSLMWDPVTPYRLHVLCQGWHYLAYDWHWTTDRSVGDNSSDLSNVAVIDGNRVLVTVFRQTVVPPPMCTYQLLFPHPVNQVTFLAHPQKSNDLAVLDASNQISVYKCGDCPSADPTVKLGAVGGSGFKVCLRTPHLEKRYKIQFENNEDQDVNPLKLGLLTWIEEDVFLAVSHSEFSPRSVIHHLTAASSEMDEEHGQLNVSSSAAVDGVIISLCCNSKTKSVVLQLADGQIFKYLWESPSLAIKPWKNSGGFPVRFPYPCTQTELAMIGEEECVLGLTDRCRFFINDIEVASNITSFAVYDEFLLLTTHSHTCQCFCLRDASFKTLQAGLSSNHVSHGEVLRKVERGSRIVTVVPQDTKLVLQMPRGNLEVVHHRALVLAQIRKWLDKLMFKEAFECMRKLRINLNLIYDHNPKVFLGNVETFIKQIDSVNHINLFFTELKEEDVTKTMYPAPVTSSVYLSRDPDGNKIDLVCDAMRAVMESINPHKYCLSILTSHVKKTTPELEIVLQKVHELQGNAPSDPDAVSAEEALKYLLHLVDVNELYDHSLGTYDFDLVLMVAEKSQKDPKEYLPFLNTLKKMETNYQRFTIDKYLKRYEKAIGHLSKCGPEYFPECLNLIKDKNLYNEALKLYSPSSQQYQDISIAYGEHLMQEHMYEPAGLMFARCGAHEKALSAFLTCGNWKQALCVAAQLNFTKDQLVGLGRTLAGKLVEQRKHIDAAMVLEECAQDYEEAVLLLLEGAAWEEALRLVYKYNRLDIIETNVKPSILEAQKNYMAFLDSQTATFSRHKKRLLVVRELKEQAQQAGLDDEVPHGQESDLFSETSSVVSGSEMSGKYSHSNSRISARSSKNRRKAERKKHSLKEGSPLEDLALLEALSEVVQNTENLKDEVYHILKVLFLFEFDEQGRELQKAFEDTLQLMERSLPEIWTLTYQQNSATPVLGPNSTANSIMASYQQQKTSVPVLDAELFIPPKINRRTQWKLSLLD [IKBKAP] | -0.15 | -0.206 | 0.962 | -0.0976 | 50.2 °C | 50 °C
MRPMRIFVNDDRHVMAKHSSVYPTQEELEAVQNMVSHTERALKAVSDWIDEQEKGSSEQAESDNMDVPPEDDSKEGAGEQKTEHMTRTLRGVMRVGLVAKGLLLKGDLDLELVLLCKEKPTTALLDKVADNLAIQLAAVTEDKYEILQSVDDAAIVIKNTKEPPLSLTIHLTSPVVREEMEKVLAGETLSVNDPPDVLDRQKCLAALASLRHAKWFQARANGLKSCVIVIRVLRDLCTRVPTWGPLRGWPLELLCEKSIGTANRPMGAGEALRRVLECLASGIVMPDGSGIYDPCEKEATDAIGHLDRQQREDITQSAQHALRLAAFGQLHKVLGMDPLPSKMPKKPKNENPVDYTVQIPPSTTYAITPMKRPMEEDGEEKSPSKKKKKIQKKEEKAEPPQAMNALMRLNQLKPGLQYKLVSQTGPVHAPIFTMSVEVDGNSFEASGPSKKTAKLHVAVKVLQDMGLPTGAEGRDSSKGEDSAEETEAKPAVVAPAPVVEAVSTPSAAFPSDATAEQGPILTKHGKNPVMELNEKRRGLKYELISETGGSHDKRFVMEVEVDGQKFQGAGSNKKVAKAYAALAALEKLFPDTPLALDANKKKRAPVPVRGGPKFAAKPHNPGFGMGGPMHNEVPPPPNLRGRGRGGSIRGRGRGRGFGGANHGGYMNAGAGYGSYGYGGNSATAGYSQFYSNGGHSGNASGGGGGGGGGSSGYGSYYQGDNYNSPVPPKHAGKKQPHGGQQKPSYGSGYQSHQGQQQSYNQSPYSNYGPPQGKQKGYNHGQGSYSYSNSYNSPGGGGGSDYNYESKFNYSGSGGRSGGNSYGSGGASYNPGSHGGYGGGSGGGSSYQGKQGGYSQSNYNSPGSGQNYSGPPSSYQSSQGGYGRNADHSMNYQYR [ILF3] | 0.113 | -0.123 | -0.903 | -1.89 | 54.1 °C | 53.9 °C
MRPPGFLSRAPSLNRAERGIWSCSMDQREPLPPAPAENEMKYDTNNNEEEEGEQFDFDSGDEIPEADRQAPSAPETGGAGASEAPAPTGGEDGAGAETTPVAEPTKLVLPMKVNPYSVIDITPFQEDQPPTPVPSAEEENVGLHVPCGYLVPVPCGYAVPSNLPLLLPAYSSPVIICATSLDEEAETPEVTEDRQPNSLSSEEPPTSEDQVGREDSALARWAADPANTAWMENPEEAIYDDVPRENSDSEPDEMIYDDVENGDEGGNSSLEYGWSSSEFESYEEQSDSECKNGIPRSFLRSNHKKQLSHDLTRLKEHYEKKMRDLMASTVGVVEIQQLRQKHELKMQKLVKAAKDGTKDGLERTRAAVKRGRSFIRTKSLIAQDHRSSLEEEQNLFIDVDCKHPEAILTPMPEGLSQQQVVRRYILGSVVDSEKNYVDALKRILEQYEKPLSEMEPKVLSERKLKTVFYRVKEILQCHSLFQIALASRVSEWDSVEMIGDVFVASFSKSMVLDAYSEYVNNFSTAVAVLKKTCATKPAFLEFLKQEQEASPDRTTLYSLMMKPIQRFPQFILLLQDMLKNTSKGHPDRLPLQMALTELETLAEKLNERKRDADQRCEVKQIAKAINERYLNKLLSSGSRYLIRSDDMIETVYNDRGEIVKTKERRVFMLNDVLMCATVSSRPSHDSRVMSSQRYLLKWSVPLGHVDAIEYGSSAGTGEHSRHLAVHPPESLAVVANAKPNKVYMGPGQLYQDLQNLLHDLNVIGQITQLIGNLKGNYQNLNQSVAHDWTSGLQRLILKKEDEIRAADCCRIQLQLPGKQDKSGRPTFFTAVFNTFTPAIKESWVNSLQMAKLALEEENHMGWFCVEDDGNHIKKEKHPLLVGHMPVMVAKQQEFKIECAAYNPEPYLNNESQPDSFSTAHGFLWIGSCTHQMGQIAIVSFQNSTPKVIECFNVESRILCMLYVPVEEKRREPGAPPDPETPAVRASDVPTICVGTEEGSISIYKSSQGSKKVRLQHFFTPEKSTVMSLACTSQSLYAGLVNGAVASYARAPDGSWDSEPQKVIKLGVLPVRSLLMMEDTLWAASGGQVFIISVETHAVEGQLEAHQEEGMVISHMAVSGVGIWIAFTSGSTLRLFHTETLKHLQDINIATPVHNMLPGHQRLSVTSLLVCHGLLMVGTSLGVLVALPVPRLQGIPKVTGRGMVSYHAHNSPVKFIVLATALHEKDKDKSRDSLAPGPEPQDEDQKDALPSGGAGSSLSQGDPDAAIWLGDSLGSMTQKSDLSSSSGSLSLSHGSSSLEHRSEDSTIYDLLKDPVSLRSKARRAKKAKASSALVVCGGQGHRRVHRKARQPHQEELAPTVMVWQIPLLNI [ARHGEF10] | -0.182 | -0.0539 | -0.414 | 0.205 | 49.3 °C | 49.8 °C
MRQKHYLEAAARGLHDSCPGQARYLLWAYTSSHDDKSTFEETCPYCFQLLVLDNSRVRLKPKARLTPKIQKLLNREARNYTLSFKEAKMVKKFKDSKSVLLITCKTCNRTVKHHGKSRSFVSTLKSNPATPTSKLSLKTPERRTANPNHDMSGSKGKSPASVFRTPTSGQSVSTCSSKNTSKTKKHFSQLKMLLSQNESQKIPKVDFRNFLSSLKGGLLK [C18ORF21] | 2.72 | -0.722 | -0.862 | -0.417 | – | 46.8 °C
MRRKEKRLLQAVALVLAALVLLPNVGLWALYRERQPDGTPGGSGAAVAPAAGQGSHSRQKKTFFLGDGQKLKDWHDKEAIRRDAQRVGNGEQGRPYPMTDAERVDQAYRENGFNIYVSDKISLNRSLPDIRHPNCNSKRYLETLPNTSIIIPFHNEGWSSLLRTVHSVLNRSPPELVAEIVLVDDFSDREHLKKPLEDYMALFPSVRILRTKKREGLIRTRMLGASVATGDVITFLDSHCEANVNWLPPLLDRIARNRKTIVCPMIDVIDHDDFRYETQAGDAMRGAFDWEMYYKRIPIPPELQKADPSDPFESPVMAGGLFAVDRKWFWELGGYDPGLEIWGGEQYEISFKVWMCGGRMEDIPCSRVGHIYRKYVPYKVPAGVSLARNLKRVAEVWMDEYAEYIYQRRPEYRHLSAGDVAVQKKLRSSLNCKSFKWFMTKIAWDLPKFYPPVEPPAAAWGEIRNVGTGLCADTKHGALGSPLRLEGCVRGRGEAAWNNMQVFTFTWREDIRPGDPQHTKKFCFDAISHTSPVTLYDCHSMKGNQLWKYRKDKTLYHPVSGSCMDCSESDHRIFMNTCNPSSLTQQWLFEHTNSTVLEKFNRN [GALNT10] | -0.0786 | -0.106 | 0.401 | 0.507 | 49.9 °C | 52.5 °C
MRRLPRALLLQLRLALLVAAGAPEVLVSAPRSLVWGPGLQAAVVLPVRYFYLQAVNSEGQNLTRSPAGETPFKVVVKSLSPKELVRIHVPKPLDRNDGTFLMRYRMYETVDEGLKIEVLYGDEHVAQSPYILKGPVYHEYCECPEDPQAWQKTLSCPTKEPQIAKDFASFPSINLQQMLKEVPKRFGDERGAIVHYTILNNHVYRRSLGKYTDFKMFSDEILLSLTRKVLLPDLEFYVNLGDWPLEHRKVNGTPSPIPIISWCGSLDSRDVVLPTYDITHSMLEAMRGVTNDLLSIQGNTGPSWINKTERAFFRGRDSREERLQLVQLSKENPQLLDAGITGYFFFQEKEKELGKAKLMGFFDFFKYKYQVNVDGTVAAYRYPYLMLGDSLVLKQDSPYYEHFYMALEPWKHYVPIKRNLSDLLEKVKWAKENDEEAKKIAKEGQLMARDLLQPHRLYCYYYQVLQKYAERQSSKPEVRDGMELVPQPEDSTAICQCHRKKPSREEL [KDELC2] | -0.048 | 0.282 | 4.98 | 4.71 | 53.8 °C | 54.9 °C
